Key:
[1] = target: GM-CSF receptor on TF-1 cells (human (endogenous in TF-1)) (UniProt P32927); test: radioligand binding
[2] = target: GM-CSF receptor on human CD34+ cord blood cells (human (endogenous in CD34+ cord blood cells)) (UniProt P32927); test: radioligand binding

Row | Substance | percent by which the IC50 is less than for full-length GM-CSF [1] | KD of the high-affinity site [2]
1 | unlabeled DPP4-truncated recombinant human GM-CSF (ligand) | 88% | –
2 | DPP4-truncated recombinant human [125I]-GM-CSF (ligand) | – | 734 pM

From PMC3742313
